Source: article PMC10769881, “Plasmid-encoded toxin defence mediates mutualistic microbial interactions” (Nature Microbiology, 2023)

Assays:
[1] = tested on: NC(=O)c1ccc[n+]([C@@H]2O[C@H](COP(=O)(O)OP(=O)(O)OC[C@H]3O[C@@H](n4cnc5c(N)ncnc54)[C@H](O)[C@@H]3O)[C@@H](O)[C@H]2O)c1; test: purified protein; assay type: biochemical, Enterococcus faecalis; conditions: 1,3-propanediol oxidation direction, 37 °C, 1,3-propanediol as co-substrate, its concentration and pH of assay not told, varied: cofactor
OCCCO = test: purified protein; assay type: biochemical, Enterococcus faecalis; conditions: NAD+ close to saturation, 37 °C, pH of assay not told, kcat printed as Vmax per enzyme molecule, closely corresponding to kcat

## 1,3-propanediol dehydrogenase (1,3-PD), rumen plasmid-encoded (Enterococcus faecalis)
[1]
  Km: 0.25 ± 0.04 mM
OCCCO
  Km: 17 ± 6 mM
  kcat: 0.183 ± 0.017 s⁻¹
